# Test results as given in the supplement of paper PMC6757056.
# ± gives the standard deviation of the averaged measurements.
# B1: library; a variant is named by its letters at N, in order (parent)
# chain: GCUGUCACCGGUGUAUUACCCUAGUGGUCGACCGGUCUGAUGAGUCUNNNNNNAGACGAAACAGC
# Columns and labels:
# hypoxanthine [1] = variants of: B1; experiment: normalized RNA/DNA level with ligand (relative to sTRSVctl = 100) (log10 (% of sTRSVctl)); ligand: hypoxanthine (xanthine aptamer); higher = less ribozyme self-cleavage, higher mRNA level; details: ligand concentration (+) RNA-Seq: 5 mM, HEK293T, reporter: mCherry (pCS4076), ligand present: yes
# Method in brief: (§1)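 Ribozyme switch library plasmids linked to reporters were introduced into HEK293T cells at 4 µg per 6-well well, with ligand, if any, added 1 h before. Total RNA was extracted with EDTA 72 h later, reverse-transcribed, amplified, barcoded and sequenced. RNA level was computed from RNA over DNA reads relative to a spiked-in non-cleaving sequence or the top sequences, then scaled and log-transformed. The top set was 25 sequences, values were ×100 and log10, and the cutoff was ≥100 DNA reads.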
# hypoxanthine [2] = variants of: B1; experiment: normalized RNA/DNA level without ligand (relative to sTRSVctl = 100) (log10 (% of sTRSVctl)); ligand: hypoxanthine (xanthine aptamer); higher = less ribozyme self-cleavage, higher mRNA level; details: HEK293T, reporter: mCherry (pCS4076), ligand present: no
# Method in brief: as §1
variant,measurement,setting,value
GCUGUCACCGGUGUAUUACCCUAGUGGUCGACCGGUCUGAUGAGUCUUAAGCAAGACGAAACAGC [UAAGCA],normalized RNA/DNA level with ligand (log10),hypoxanthine [1],1.89 ± 0.031
same,normalized RNA/DNA level without ligand (log10),hypoxanthine [2],1.8271 ± 0.0017
GCUGUCACCGGUGUAUUACCCUAGUGGUCGACCGGUCUGAUGAGUCUUAAGCCAGACGAAACAGC [UAAGCC],normalized RNA/DNA level with ligand (log10),hypoxanthine [1],1.9849 ± 0.0019
same,normalized RNA/DNA level without ligand (log10),hypoxanthine [2],1.876 ± 0.015
GCUGUCACCGGUGUAUUACCCUAGUGGUCGACCGGUCUGAUGAGUCUUAAGCUAGACGAAACAGC [UAAGCU],normalized RNA/DNA level with ligand (log10),hypoxanthine [1],1.946 ± 0.013
same,normalized RNA/DNA level without ligand (log10),hypoxanthine [2],1.874 ± 0.011
GCUGUCACCGGUGUAUUACCCUAGUGGUCGACCGGUCUGAUGAGUCUCAAGCGAGACGAAACAGC [CAAGCG],normalized RNA/DNA level with ligand (log10),hypoxanthine [1],1.94 ± 0.037
same,normalized RNA/DNA level without ligand (log10),hypoxanthine [2],1.82 ± 0.03
GCUGUCACCGGUGUAUUACCCUAGUGGUCGACCGGUCUGAUGAGUCUCAAGCUAGACGAAACAGC [CAAGCU],normalized RNA/DNA level with ligand (log10),hypoxanthine [1],1.981 ± 0.0081
same,normalized RNA/DNA level without ligand (log10),hypoxanthine [2],1.892 ± 0.003
GCUGUCACCGGUGUAUUACCCUAGUGGUCGACCGGUCUGAUGAGUCUUAAGGCAGACGAAACAGC [UAAGGC],normalized RNA/DNA level with ligand (log10),hypoxanthine [1],1.945 ± 0.0051
same,normalized RNA/DNA level without ligand (log10),hypoxanthine [2],1.839 ± 0.0074
GCUGUCACCGGUGUAUUACCCUAGUGGUCGACCGGUCUGAUGAGUCUGAAGGUAGACGAAACAGC [GAAGGU],normalized RNA/DNA level with ligand (log10),hypoxanthine [1],1.91 ± 0.068
same,normalized RNA/DNA level without ligand (log10),hypoxanthine [2],1.73 ± 0.06
GCUGUCACCGGUGUAUUACCCUAGUGGUCGACCGGUCUGAUGAGUCUGAAGGCAGACGAAACAGC [GAAGGC],normalized RNA/DNA level with ligand (log10),hypoxanthine [1],1.889 ± 0.016
same,normalized RNA/DNA level without ligand (log10),hypoxanthine [2],1.52 ± 0.044
GCUGUCACCGGUGUAUUACCCUAGUGGUCGACCGGUCUGAUGAGUCUAAAGACAGACGAAACAGC [AAAGAC],normalized RNA/DNA level with ligand (log10),hypoxanthine [1],1.9 ± 0.039
same,normalized RNA/DNA level without ligand (log10),hypoxanthine [2],1.82 ± 0.019
GCUGUCACCGGUGUAUUACCCUAGUGGUCGACCGGUCUGAUGAGUCUUAACUUAGACGAAACAGC [UAACUU],normalized RNA/DNA level with ligand (log10),hypoxanthine [1],1.97 ± 0.0029
same,normalized RNA/DNA level without ligand (log10),hypoxanthine [2],1.899 ± 0.0086
GCUGUCACCGGUGUAUUACCCUAGUGGUCGACCGGUCUGAUGAGUCUCAAGACAGACGAAACAGC [CAAGAC],normalized RNA/DNA level with ligand (log10),hypoxanthine [1],1.9181 ± 0.0013
same,normalized RNA/DNA level without ligand (log10),hypoxanthine [2],1.825 ± 0.015
GCUGUCACCGGUGUAUUACCCUAGUGGUCGACCGGUCUGAUGAGUCUCAAGAUAGACGAAACAGC [CAAGAU],normalized RNA/DNA level with ligand (log10),hypoxanthine [1],1.94 ± 0.048
same,normalized RNA/DNA level without ligand (log10),hypoxanthine [2],1.76 ± 0.048
GCUGUCACCGGUGUAUUACCCUAGUGGUCGACCGGUCUGAUGAGUCUGAACUGAGACGAAACAGC [GAACUG],normalized RNA/DNA level with ligand (log10),hypoxanthine [1],1.87 ± 0.05
same,normalized RNA/DNA level without ligand (log10),hypoxanthine [2],1.519 ± 0.0031
GCUGUCACCGGUGUAUUACCCUAGUGGUCGACCGGUCUGAUGAGUCUGAAGCCAGACGAAACAGC [GAAGCC],normalized RNA/DNA level with ligand (log10),hypoxanthine [1],1.948 ± 0.016
same,normalized RNA/DNA level without ligand (log10),hypoxanthine [2],1.85 ± 0.041
GCUGUCACCGGUGUAUUACCCUAGUGGUCGACCGGUCUGAUGAGUCUGAAGCUAGACGAAACAGC [GAAGCU],normalized RNA/DNA level with ligand (log10),hypoxanthine [1],1.982 ± 0.015
same,normalized RNA/DNA level without ligand (log10),hypoxanthine [2],1.84 ± 0.031
GCUGUCACCGGUGUAUUACCCUAGUGGUCGACCGGUCUGAUGAGUCUCAAGGGAGACGAAACAGC [CAAGGG],normalized RNA/DNA level with ligand (log10),hypoxanthine [1],1.72 ± 0.036
same,normalized RNA/DNA level without ligand (log10),hypoxanthine [2],1.28 ± 0.043
GCUGUCACCGGUGUAUUACCCUAGUGGUCGACCGGUCUGAUGAGUCUCAAGGAAGACGAAACAGC [CAAGGA],normalized RNA/DNA level with ligand (log10),hypoxanthine [1],1.912 ± 0.012
same,normalized RNA/DNA level without ligand (log10),hypoxanthine [2],1.79 ± 0.044
GCUGUCACCGGUGUAUUACCCUAGUGGUCGACCGGUCUGAUGAGUCUCAAGUAAGACGAAACAGC [CAAGUA],normalized RNA/DNA level with ligand (log10),hypoxanthine [1],1.89 ± 0.054
same,normalized RNA/DNA level without ligand (log10),hypoxanthine [2],1.779 ± 0.011
GCUGUCACCGGUGUAUUACCCUAGUGGUCGACCGGUCUGAUGAGUCUAAAGCCAGACGAAACAGC [AAAGCC],normalized RNA/DNA level with ligand (log10),hypoxanthine [1],1.94 ± 0.04
same,normalized RNA/DNA level without ligand (log10),hypoxanthine [2],1.817 ± 0.0038
GCUGUCACCGGUGUAUUACCCUAGUGGUCGACCGGUCUGAUGAGUCUGAAGAUAGACGAAACAGC [GAAGAU],normalized RNA/DNA level with ligand (log10),hypoxanthine [1],1.94 ± 0.035
same,normalized RNA/DNA level without ligand (log10),hypoxanthine [2],1.8 ± 0.075
GCUGUCACCGGUGUAUUACCCUAGUGGUCGACCGGUCUGAUGAGUCUUAAGAUAGACGAAACAGC [UAAGAU],normalized RNA/DNA level with ligand (log10),hypoxanthine [1],1.907 ± 0.0056
same,normalized RNA/DNA level without ligand (log10),hypoxanthine [2],1.72 ± 0.057
